Measurements taken from PMC7865483.

Target: EE-tagged Pank1β (pantothenate kinase 1β), stably overexpressed in HEK293 cells (UniProt Q8TE04)
Experiment: proximity ligation; in situ PLA (Duolink) on fixed HEK293/Pank1β cells with anti-Pank1 and anti-CoAsy, anti-PPCS or anti-PPCDC antibodies; exponentially growing cells in full medium; for Pank1/CoAsy also after 16 h serum starvation, serum starvation + 500 μM H2O2 for 10 min, and serum starvation + 1 μM insulin for 3 h or 6 h

Chain of EE-tagged Pank1β (pantothenate kinase 1β), stably overexpressed in HEK293 cells (Q8TE04 other isoform, or with tags, fused parts or gaps): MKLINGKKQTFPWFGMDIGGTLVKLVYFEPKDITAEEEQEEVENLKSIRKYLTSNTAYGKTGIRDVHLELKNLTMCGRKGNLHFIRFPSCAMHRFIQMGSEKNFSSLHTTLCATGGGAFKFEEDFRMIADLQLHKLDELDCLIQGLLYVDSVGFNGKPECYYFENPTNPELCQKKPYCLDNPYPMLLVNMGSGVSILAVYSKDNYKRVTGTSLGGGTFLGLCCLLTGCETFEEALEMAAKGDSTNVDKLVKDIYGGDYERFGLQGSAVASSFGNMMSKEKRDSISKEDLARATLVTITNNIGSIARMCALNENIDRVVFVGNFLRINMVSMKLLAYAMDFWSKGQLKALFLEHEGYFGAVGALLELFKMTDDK

Substance: CoA synthase (CoAsy) (from UniProt Q13057 1-564) (enzyme)
- fold increase of the PLA signal after serum starvation or serum starvation + H2O2, against control cells: 2 fold
